Reference: the DeepSol protein solubility set

Assay: soluble on expression in E. coli; label from the status in PepcDB or PDB records

Soluble on expression in E. coli, not soluble:
MGSDKIHHHHHHMGKLLAINISKERGTEKREVPQAELVADYGIMGDAHAGKWHRQVSLLSAEKIDAFRARGAQIDNGAFGENLIISGFDFKNLPLGTRFCIGDAILEMTQIGKQCHSHCAIYKRMGECIMPKEGVFAVVIRGGQIHTGDEVKLIPANIYASIKDRPADSRCELLTVTEGAHAGEKALYIDGRIRVASGSAWADEINDNDNSIVMFKQQIGSRPRLIICGGGHVSAALVRMASLLAFDIWVIEDRPLFADNAKRQGADHVICGDYKKTLARLEPQADDYYVCMTRGHRFDMECLTEIFRKPYAYVGMMGSKKRAAIVKKDLEESGFSRENISGLHSPIGLAIGGQTPEEIALSVISEIVKCKNERTGCTQVDNEVLDALIEASDEKYILCTIIKKNGSAPRGVGTQMLVSSDNRIIGTIGGGCAEAEVISQCRRLFRKQEFKCGLMDVSMNTDDAEKEGMVCGGSISVLLEQLG, MGSDKIHHHHHHMGNAAASTRAICHRRCSTYPRMNDFQSLSTEESPAPAGTNPAVNPIARIHGEPVTEIPSDLYIPPDALEVFLDTFQGPLDLLLYLIRKHNLDVLDIAMAELTRQYLAYIEMMRANKLELAAEYLLMAAVLIEIKSRMLLPKPVAKGNEDEVDPRAELVRRLLEYEQMKVAGQKLNKLPQAERDFALTNVWIEQKVIERLPEVNADDLRNAWLILMARLNVNRRHNITREELSVREHMTRILRHVQGHHFVEFSDLFNAAAGAAELVVTFLALLELVKERQVEVSQPSAFGMIYVRPISVLTTV, MGSDKIHHHHHHMGNRQRILPLGVQAPATLEGYYPCPNAAALHAVLKLVAEPQGLCLYLYGPGGVGKSHLLLGAASALAGWTPYMDCGDVPQLFNRIKDLEGFSSLVAAPLLCLDNIEVWAGQRDKETFLFDLYNERMSNGRPMLLAGRAAPRFLDWALPDWASRASACLQVALRLPDDTERMAILQEMAQRRGLQIGVEAAHYLLRHHARDPRTLDGLLTILDAGSWEHQREVTIPFIRLCLGAEKP, MGSDKIHHHHHHMGNTINLSRFYKACNPSYTLNMGVMLDRQYYIDFANVRGCKIVEELQRTISRISPDEPTCQLFTGHIGCGKSTELQRLKTELETAGFHVVYFESSQDLDMADIDVSDILLSVARQVCVSLEAIGIKLKPGYFNNLFKEIGDFLQAPIELSGEAEFSLGIAKITAKTKDSTQLRNQLRQYLEPRTNNILQAINEEILEKAVEQLKRRGQKGLVVIVDNLDRVDMRPVASGRTQPEYLFIDRGEQLRRLKCHVVYTIPLALIFSSEYETLKNRLGGGIAPKVLPMVLVRQRDGSDYEPGMSLLRQLVLARAFPEVASQERQQLITELFEQTETLDRLCRVSGGHIRNLLGLLYSCLQRQDPPFSRDCLEAVIKDYRDDLLLAIDECQWELLFDVMQQQSVKGESDYQSLLRSMYLFEYRDPVGRWFGISPALAETEKVLAWRESK, MGSDKIHHHHHHMGNTVAMILAGGQGTRLGVLTERIAKPAVPFGGKYRLIDFTLSNCVNSGIYRVGVLTQYRPHVLSKHIGIGRPWDLDRKDGGVEILPPYVGRHESDWYKGTANAVYQNLEFLEENDAELVLILSGDHVYAMNYNDLIDYHLLKEADGTIACMEVPIEEASRFGIMITDVDGRIVDFEEKPAKPRSNLASLGIYVFNYEFLKKVLIEDENDPNSSHDFGKDVIPRILRENLGSLYAFRFDGYWRDVGTLRSYWEANLELVLPVPPFNLYDPNWRFFTHTEEMPPAYVAPGSKVSTSLVSEGAEVYGNVFNSVIFQGVKIGRGTVVKNSVIMTRTEIGENCYLENVIIAENVKIGSNVRMGVGEDAESKLDPKVYSGLLTVVGMNSVIPDDMVIGKNCVIGIGVRPEDFKSKTLESGDYVIVREE, MGSDKIHHHHHHMHASVKFRIAEIINSTMPSAEWRLLKQIGVNEVVGTLPRDPSDWRGDQPDLPWDYAPLSSLKRRLSEYGLTLSAIEDNPPMEKIKYGVKGKEDELENVLRLIENMGRLKIGVWCYNWMAGQGWMRSRISIPDRGGAEVTGFSLSDIEEYPPPKMGKIDAETLWKNLAWFLDNVIPVAEDSGVKIAMHPDDPPLEEIRGVSRIMNNVKAFDKLIEMKRSEYNTITLCQGNFTLMTEDLPSAIRHFVRKKAVSFVHFRDVKGKKDNFIESFIDDGKTDTASCMSAYIEEGFDGIMRTDHTPTLYGDTYKVPGYSILGRLHAIGYIQGLIDGVSMV, MGSDKIHHHHHHMHDVLAKGILSSNNGMNIYRGCTHGCIYCDARSLCYGMDHIFEDIEVKTNVVELLEDTLKRKRKKCMIGTGAMSDPYIHLEEKLQNTRRCLEIIDKYGFGLSILTKSNRILRDLDLLKSINNKAKCVVEMTLTTYDEELCKIIEPNVSTTKERFEVLKIMRDNKIPTVVWLSPILPYINDTEENIRGILDYCIEAEVKGIIVFGIGVTLRNGNREYYYKNLDKQFKGLKEKYIRQYGNSYEVVSKNHEKLMKIIKETCNKNNIICDIREVFNYMRTFEEKNNEVQIGFDI, MGSDKIHHHHHHMHEDHFDKFVQKNLDRNIPIVTTEEAGKSLKELGFMKRHPLKTWDTLIVERGNTLLRVTAMPGRHGPPIVAELLPEVMGSLLDFGIKNSPRSYRMYISGDTMVFDDIKEIPRRYPDVDLALLHLGGTRLLGLVTVTMDAKEGVKMMQLIVPRKAIPIHYNDYDVFKSPLSDFKKEMERAGLQDKIIYLEHGDTYEFDLEEK, MGSDKIHHHHHHMHIADITMFYAPASGGVRTYLEAKRNRLAKLPGVTSSLLVPGAYHRSHGSIHEVPAPPLPFSQGYRFPLKRRGWQRELHRLAPDLIEAGDPYVTAWAALDAGRALDVPVVGFYHSDLPRLIGNRLGNWTRAALDRYVRNLYGHCDRVLAPSRVIADRLQTLGLDNVAVQPLGVDLTTFSPQRRQFAFRQRLGLDDDTRLLIFVGRGSREKNLSVLLDTARHLGKGYHLVLIGPQMPQRVPDNVSVIGRYTATADVADWLASSDILLHAGTQETFGLVALEAMASGIPVVAARAGALAENVPLGCGRLCEPHSAQDMARAVRELCADAPEEQGRRARQHVERHHDWDIVVSSLMHHYRELTGQRVNTESLQHG, MGSDKIHHHHHHMHPKSPLTMQQSSVFIDSEVLLDDRKFAEAMLLKKDKAGLSRADMVFVLRNLLRLKYYPVAVKFFYDEAEVEKFKAEHEYLVACNPFTFCHFCAESRQKGDVLFGERRTLGCSNARYLFGWKDYDENEIKSHMKYVKDREQAERFVKTKPRLPEGLLAFATAPLHKAKFEPDLVFIICDVLQSYHLYNDYAAAMDVHPIRPNFMMNSAACGGAVWSYVENTINIVPMCSGSYTAGKTEQGEINVFIPWAHFEKLVVRLLERTASQGGASFPRTGETYPGFDICKLCNFLLFRKPKEDE, MGSDKIHHHHHHMIALGIEGTAWSLSIGVVDEEGVIALENDPYIPKEGGIHPREASQHHSERLPSLLSRVFEKVDKNSIDVVAFSQGPGMGPCLRVVATAARLLAIKLEKPLVGVNHCLAHVEVGRWQTGARKPVSLYVSGGNSQVIARRGNRYRVFGETLDIGIGNALDKLARHMGLKHPGGPKIEELAKKGQKYHFLPYVVKGMDFSFSGMVTAAQRLFDSGVRMEDVAFSFQETAFAMLTEVTERALAYLDLNEVLLVGGVAANKRLQEMLRIMCEDRGAKFYVPPKELAGDNGAMIAYTGLLMYKHGHQTPVEKSYVRPDFRIEDVEVNWD, MGSDKIHHHHHHMIDVTFDPTLANTLAQSLKLTAIALPLDLQIGDLTRLTDAKNSYWGLKARYTKSGGASAEFAAVTTSQQRLQQVLATGATLRVWTSVNPADQLGWGWLCSQLVQAQFMGVIQRIQIPLSGPVMTEMGPVFMQNSTIGELDEPALEHDLATAKVVTAADWVAFSYHWQACYEDNAALRLILGGRVVGVPQDFLDPLVRTCYRPEQSTAQTLGRILDNYPIGMPNWWWQYRIDQIAKASVR, MGSDKIHHHHHHMIGYGKTVRDIRTSKGIHQKDLYDNIISKSFAIEFEKGKHDITLSLFEKILKRMNMDLDEFFYIHRELSKSAEKNYLCMNQERGNIYDLESLELLYSELSKHDGELVEVWKAFVRSRIKMVEHLLKYHEFTVDVITAKDKCTIQKYLFSIDTWTLEELKICANSIYFFEEDLQIQFLNQVIKAIQPYKNYDRARRVLCTLLINTIEVFISRSQLSSASKLLILLDSLCIYNESAFYRNISNFLKGLLKMQSNQIKEGYAQAKKAIQLMNDLHFEEIAYLYEILLDQFIQLEGIDILNY
